This note sets out measurements from US20200283729A1.

In test [1] the target is Folate receptor alpha on cells (SKOV3, A1847, T47D, 293T, IOSE6) (human) (UniProt P15328). Briefly: cell-based or functional assay.
The target of test [2] is biotin-labeled recombinant FRa protein (R&D Systems, Inc) (UniProt P15328). Briefly: flow cytometry; transduced primary human T cells stained with biotin-labeled recombinant FRA protein, then SA-PE; plotted against CD8. (In general: Flow cytometry measures light scatter and fluorescence of single cells or particles in a stream.)
Sequence of biotin-labeled recombinant FRa protein (R&D Systems, Inc) (P15328 25-233 limits assumed): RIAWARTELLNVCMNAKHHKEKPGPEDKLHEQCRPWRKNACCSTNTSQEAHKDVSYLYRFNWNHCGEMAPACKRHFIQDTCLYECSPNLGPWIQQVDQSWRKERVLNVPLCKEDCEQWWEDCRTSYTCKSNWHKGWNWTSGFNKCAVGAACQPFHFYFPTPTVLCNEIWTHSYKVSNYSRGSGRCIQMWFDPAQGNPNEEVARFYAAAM
Test [3] deals with Recombinant mesothelin-extracellular domain protein on beads (UniProt Q13421). Briefly: cell-based or functional assay.
Sequence of Recombinant mesothelin-extracellular domain protein on beads (Q13421 other isoform, or with tags, fused parts or gaps limits assumed): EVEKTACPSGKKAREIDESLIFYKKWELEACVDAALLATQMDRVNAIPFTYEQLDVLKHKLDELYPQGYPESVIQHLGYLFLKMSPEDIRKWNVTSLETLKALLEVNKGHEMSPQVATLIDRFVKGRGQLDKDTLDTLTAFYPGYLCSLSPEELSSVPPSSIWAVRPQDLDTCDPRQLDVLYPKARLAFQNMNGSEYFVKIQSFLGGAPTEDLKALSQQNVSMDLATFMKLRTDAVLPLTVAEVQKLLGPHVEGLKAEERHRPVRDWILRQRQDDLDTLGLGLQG
For a further test, the target named is CD19-BBZ CAR on T cells. Briefly: flow cytometry; T cells one day after CD19-BBZ CAR mRNA electroporation, stained with anti-mouse IgG Fab antibody.

Sequence of Folate receptor alpha on cells (SKOV3, A1847, T47D, 293T, IOSE6) (human) (P15328 25-234, stated change not applied): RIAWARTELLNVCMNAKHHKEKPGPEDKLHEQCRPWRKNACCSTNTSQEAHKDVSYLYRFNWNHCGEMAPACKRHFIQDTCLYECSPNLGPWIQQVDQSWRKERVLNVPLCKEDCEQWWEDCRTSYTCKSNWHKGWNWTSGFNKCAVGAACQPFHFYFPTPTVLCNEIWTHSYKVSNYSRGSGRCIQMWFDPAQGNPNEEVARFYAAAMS

On to MOv19-27z CAR on human T cells, for which the surface CAR expression after exposure to SKOV3 cells in test [1] is 1 % of T cells. For the same substance, in test [2], the percent of cells CD8+ and FRA CAR+ (upper right quadrant) was determined as 41.2%; the percent of cells CD8- and FRA CAR+ (lower right quadrant) is 31.3%.
Consider “anti-mesothelin CAR (mesoCAR, SS1 BBZ) on wild-type mouse T cells”, for which the % IFN-γ cytokine-producing cells after 6 hours with coated beads (flow cytometry) in test [3] worked out at 7%.
In the test with CD19-BBZ CAR on T cells, “anti-mouse IgG Fab antibody (detection reagent for the 19BBZ panel)” showed a percent of cells in the CAR-positive gate of 98.5.
